In the DeepSol protein solubility set:

Test: soluble on expression in E. coli; label from the status in PepcDB or PDB records

Sequence | soluble on expression in E. coli
MLALSRGRYLARPAAGLEDLRRAQELRWLAFHARRAGSGASGLDADRFDGACSHMLIEEAESGALVGCFRFLTFASGREIGRSYSAQFYELSALEGFAGPMVEMGRFCIHPDRRDPDILRVAWGALTQHVDRAGIEMLFGCSSFHGTEPEAYLDTFAMLKERHLAPPRWLPRVKAASVYRFAQRLARREPDARRAMLQMPPLLRTYLMMGGWVSDHAVVDREMDTLHVFTGLEIGAIPARRARALRAVAG | not soluble
MRLDKYLSKSLHISRKEAKELIREGRVKVSGKVVKQAEYRVKEGEEVEVEGKSVKPKKNVYLMLYKPKGYLSTTEEDKKYPSFLELIREHFPSRKLFSAGRLDVDAEGLLLITDDGELAHRLTHPKWKVEKEYIVRLDRDIGDEELKKLYEVKLEEKPVQLVKAEKLSGDTVKAILTEGRHHVVKRLFKAVGHNVVYLKRTRVGNLRLDENMEPGEWRELTEEEVKELKRLVKYNPQN | soluble
MSSKEQKTPNEQVSEEMENTAEQQVEATQETGECVDPRVAELEVQLSDALQRERESLLRAKAEVENIRRRTELDVEKAHKFALERFSSELLPVIDNLERALDTADKTNTELISMIEGVELTLKSLLDAVGKFGIEVVGETHVPFNPEVHQAMTMLESADHEPNHVMMVMQKGYTLNGRLLRPAMVAVSKAKS | not soluble
MGMENYNPPQEPWLVILYQDDHIMVVNKPSGLLSVPGRLEEHKDSVMTRIQRDYPQAESVHRLDMATSGVIVVALTKAAERELKRQFREREPKKQYVARVWGHPSPAEGLVDLPLICDWPNRPKQKVCYETGKPAQTEYEVVEYAADNTARVVLKPITGRSHQLRVHMLALGHPILGDRFYASPEARAMAPRLLLHAEMLTITHPAYGNSMTFKAPADFLEHHHHHH | soluble
MGSDKIHHHHHHMAFKTPLADRMRPQSLEQMVGQQDLLKAGQPLRQIIDQHVNIPLILWGPPGTGKTSLAQIIASQDDYPFVAFNASTENKAQLTKAIAQYPEQSFVLLIDEIHRMTKTLQDFLLPYLENGHVMLIGSTTENPIMSIVPAIRSRCQIFEFQPLSDTDIEIALRRAVTDIYNLTDDQVDAKALNLIAISAEGDLRIALNILETLHAIDQKQITVAAVQHFAQQQHFSYDRKATKHYDYLSAYSDSMAGSDTDAALYYLTILLKNDDLPSVVRRLREIPYTYIGLANPEQVTQIVVAANQAEKIGMPKAKYPLMFATMLMCISPKSGSFDQSWEKLDQDTQNPSQHPMPRGLRDMHYKHSEEITGGGLIDNPFQMPHQIAQQNYMPKGLAGRRYYYPKDNENERKLGAQYLKLHRFIYNEDYHE | not soluble
MKKYLNQNVYDALIERLHFLFNDFPIVYISFSGGKDSGLLLNILLDFRDKYYPDREIGVFHQDFEAQYSLTTKYVQETFTSLEGRKKVSLYWVCLPMATRTALSSYEMFWYPWDDKTEDIWVRPMPSQDYVINLENNSITTYRYKMNQEDLAKQFGRWYKQIHGNQKTVCILGNRASESLHRYSGFINKKYGYQKECWITKQFKDVWTASPLYDWSVEDIWHAYYKFSYSYNELYDLFYKAGLKPSQMRVASPFQDYAVDSLNLYRIIDQETWVKLLGRVQGVNFSNIYGRTKAMGYKSIALPKGHSWKSYTQFLLSTLPVRLRNNYVRKFNKSIDFWHKTGGGLAEETINELIEKGYRIARNGISNYTSFKHSRVIFLDQIPDDTDDIVTTKDIPSWKRMCFCILKNDHICRTMGFGLTREQQKIVAFLKEKYKTSLKELESE | not soluble
MVSTESEIAVRIRGIYSTALTKLLMDRGFKIVQPSDVIAERFGIEKSYEDFDVDIYDKNHGVTIVGTKVEAVKKVFEEEFIDVFFRKLPYKLHGIYKGLVVKRDDRFVYVDIGNVIGTVLIEELPDAAEGDEVVVQVKKHNVLPHLSTLITIPGDYAVLIPKPIGVQRHVKISRKIKDPEERERLRILGLSVDLGEWGVLWRTAAAYKDWNTLRDELVRLSKIADKLKEAEKFSAPAEIIEGREIYEIEFGGGVKKKLDEIRNEVVPTIEGHHQFKSYDPEFTLAVDVAEGILAKLPSQRQKISKGFLEAIITSKGPKVGWIFTLNHVKPDGQIIKIGPGEVIEVSTDPLKVTIKRYLRPGKFYDGLEVPIESGDYAITEIEAGKWWFVHRYYDKDGNLKGEFYNINTPVEIYPDKARYVDLEVDIVRWPDGKKEIIDKEKLKEHYEEGIISEKLYKATLRIAQEVYDRLLEHHHHHH | not soluble
